{"source": "patent US12037382", "about": "(STICHTING VU, dated 2024)", "binders": {"B1": {"name": "human chemokine CX3CL1 (ligand, UniProt P78423 25-100, looked up)", "chain": "QHHGVTKCNITCSKMTSKIPVALLIHYQQNQASCGKRAIILETRQHRLFCADPKEQWVKDAMQHLDRQAAALTRNG", "modifications": "125I label where used as radioligand", "notes": "also called CX3CL1/Fractalkine"}}, "key": {"[1]": {"target": "T1, US28 wild type, G protein-coupled receptor of human cytomegalovirus strain VHL/E (human cytomegalovirus strain VHL/E)", "T1 construct": "whole, on cells; In some assays membranes of transfected cells were used; also called US28-WT; US28 VHL/E", "assay": "competition of unlabeled CX3CL1 against 125I-CX3CL1 on US28"}, "[2]": {"target": "T1, US28 wild type, G protein-coupled …", "assay": "displacement of 125I-CX3CL1 from US28-expressing HEK293T membranes by unlabeled CX3CL1"}}, "data": [{"binder": "B1", "values": [{"measurement": "IC50 (read off the curve)", "setting": "[1]", "value": "~100", "unit": "pM"}, {"measurement": "IC50 (read off the curve)", "setting": "[2]", "value": "~300", "unit": "pM"}]}]}
